Source: IntAct's records for PubMed 26779609

B1: CDKN2AIP N-terminal-like protein (Homo sapiens), Q96HQ2 (parent)
chain: MVGGEAAAAVEELVSGVRQAADFAEQFRSYSESEKQWKARMEFILRHLPDYRDPPDGSGRLDQLLSLSMVWANHLFLGCSYNKDLLDKVMEMADGIEVEDLPQFTTRSELMKKHQS
partner: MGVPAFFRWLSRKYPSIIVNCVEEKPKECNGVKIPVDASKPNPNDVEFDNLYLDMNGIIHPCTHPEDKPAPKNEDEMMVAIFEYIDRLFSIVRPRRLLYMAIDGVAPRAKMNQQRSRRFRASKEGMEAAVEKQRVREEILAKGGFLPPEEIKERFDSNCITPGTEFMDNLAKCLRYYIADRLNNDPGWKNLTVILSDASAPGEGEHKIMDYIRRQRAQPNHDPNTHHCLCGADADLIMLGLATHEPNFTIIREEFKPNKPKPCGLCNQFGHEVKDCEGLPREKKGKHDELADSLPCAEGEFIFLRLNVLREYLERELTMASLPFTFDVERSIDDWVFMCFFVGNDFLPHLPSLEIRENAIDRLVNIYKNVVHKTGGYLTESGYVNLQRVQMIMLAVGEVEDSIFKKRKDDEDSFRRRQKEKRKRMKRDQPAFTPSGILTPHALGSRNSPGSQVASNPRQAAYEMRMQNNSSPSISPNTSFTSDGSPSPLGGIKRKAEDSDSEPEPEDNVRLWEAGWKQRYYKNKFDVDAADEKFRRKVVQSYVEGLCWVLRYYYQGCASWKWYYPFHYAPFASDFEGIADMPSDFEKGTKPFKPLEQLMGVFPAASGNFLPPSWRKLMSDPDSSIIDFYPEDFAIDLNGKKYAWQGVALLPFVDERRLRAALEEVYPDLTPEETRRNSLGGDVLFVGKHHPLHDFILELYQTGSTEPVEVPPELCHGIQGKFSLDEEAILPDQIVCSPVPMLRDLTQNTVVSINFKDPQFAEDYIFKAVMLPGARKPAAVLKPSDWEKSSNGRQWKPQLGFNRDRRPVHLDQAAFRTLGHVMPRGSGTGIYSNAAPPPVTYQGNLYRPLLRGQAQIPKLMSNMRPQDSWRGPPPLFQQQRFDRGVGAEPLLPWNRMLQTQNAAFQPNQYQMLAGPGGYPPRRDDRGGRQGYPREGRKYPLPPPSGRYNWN
B2: Partner of xrn-2 protein 1 (Caenorhabditis elegans), Q21738 (parent)
chain: MGKLEDVEAEKKLWESDDAWELRKAFMLAHYDDYPKIQLQCLSQLFINVTLLGCEYSQTLMQKIRTMGAGIAANKDRTKTGSYVKASAAKKRQAVKTSDLEGASDESKKVKMEKSPSPVARESFDERLGKLKASLAMTPHHLTGEQMMKTATNSCLMKWHVNKINQKIEITIDRYVAFRHTFSQYCVDPRDCAINTLIESILSCDAAVHEESYEIRFDGVPVDECYAKSVTRRLAKIKSAVSNGAHTVKGLTTYLDAVNMSMIQNTQKLEGWSQQLDLVTADLLLSSRVLSSTECTKPAMATIANQMSEDVCQLILNDKINVINSMKSHSSLAFQ
partner: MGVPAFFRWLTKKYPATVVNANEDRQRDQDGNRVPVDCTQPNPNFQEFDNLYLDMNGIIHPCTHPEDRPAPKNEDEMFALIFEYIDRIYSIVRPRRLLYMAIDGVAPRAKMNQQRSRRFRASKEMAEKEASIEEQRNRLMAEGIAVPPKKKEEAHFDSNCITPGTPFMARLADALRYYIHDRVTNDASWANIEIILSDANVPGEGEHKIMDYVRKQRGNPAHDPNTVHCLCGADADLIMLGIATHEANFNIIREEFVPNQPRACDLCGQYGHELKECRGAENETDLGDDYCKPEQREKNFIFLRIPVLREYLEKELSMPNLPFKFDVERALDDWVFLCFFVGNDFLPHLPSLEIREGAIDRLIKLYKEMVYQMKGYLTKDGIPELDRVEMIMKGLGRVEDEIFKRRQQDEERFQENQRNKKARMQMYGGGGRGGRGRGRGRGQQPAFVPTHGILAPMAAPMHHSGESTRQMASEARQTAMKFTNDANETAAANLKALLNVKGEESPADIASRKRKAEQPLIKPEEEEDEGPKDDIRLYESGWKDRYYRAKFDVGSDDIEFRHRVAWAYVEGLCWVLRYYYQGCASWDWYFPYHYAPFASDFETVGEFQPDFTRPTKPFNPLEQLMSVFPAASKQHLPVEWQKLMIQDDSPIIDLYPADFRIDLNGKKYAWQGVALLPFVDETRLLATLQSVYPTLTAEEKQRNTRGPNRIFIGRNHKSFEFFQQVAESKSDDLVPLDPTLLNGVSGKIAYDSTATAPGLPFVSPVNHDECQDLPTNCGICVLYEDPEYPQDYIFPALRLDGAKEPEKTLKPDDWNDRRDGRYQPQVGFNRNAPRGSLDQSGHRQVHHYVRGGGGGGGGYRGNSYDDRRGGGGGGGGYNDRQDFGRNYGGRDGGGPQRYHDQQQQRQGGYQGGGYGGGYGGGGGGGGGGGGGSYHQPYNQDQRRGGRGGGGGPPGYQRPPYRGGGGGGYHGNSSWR

Variants of: B1
Conditions: with xrn2_human XRN2, Q9H0D6

Row | effect of a mutation on the interaction | Variant
1 | disrupting interaction strength | Y81A

Variants of: B2
Conditions: with xrn2_caeel xrn-2, Q9U299

Row | effect of a mutation on the interaction | Variant
2 | disrupting interaction strength | Y56A
3 | disrupting interaction strength | C54A
